For the series, the target named is SARS-CoV-2 spike (S/S1) protein (SARS-CoV-2, UniProt P0DTC2 P0DTC2:14-685).

From US20230107004, “[…] ELECTROCHEMICAL BIOSENSOR” (THE GOVERNING COUNCIL OF THE UNIVERSITY OF TORONTO, published 2023) come the findings set out here.

B1: CoV2-RBD-4C aptamer-P2 hybridized to P1 (iMP) (mixed)
DNA 1: ATCCAGAGTGACGCAGCATTTCATCGGGTCCAAAAGGGGCTGCTCGGGATTGCGGATATGGACACGTTTTTCTTATTAGATACAATAGCTGGTA
DNA 2: TACCAGCTATTGTATCTAATAAGA
modifications: P1 strand 5'-thiol-MC6 on gold electrode, 3'-NH2 conjugated to ferrocene
For the molecule B1, the binding result is on record as “binds”.
